Earlier results, collected in PMC3683042, “Solution Structure and Peptide Binding of the PTB Domain from the AIDA1 Postsynaptic Signaling Scaffolding Protein” (PLoS ONE, 2013).

How the values were obtained:
[1] = target: APP 11 aa peptide (Homo sapiens) (UniProt P05067)
[2] = target: APP 32 aa peptide (Homo sapiens) (UniProt P05067)
[3] = target: APP 14 aa peptide (Homo sapiens) (UniProt P05067)

Sequence of Fe65 PTB2 (O00213 542-699): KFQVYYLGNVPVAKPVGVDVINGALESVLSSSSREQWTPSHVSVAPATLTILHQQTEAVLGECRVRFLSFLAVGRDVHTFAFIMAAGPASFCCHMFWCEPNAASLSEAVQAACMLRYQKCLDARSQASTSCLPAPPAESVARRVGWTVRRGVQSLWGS
Sequence of APP 32 aa peptide (Homo sapiens) (P05067 739-770): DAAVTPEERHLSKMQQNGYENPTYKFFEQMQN
Sequence of X11 PTB (Q02410 457-643): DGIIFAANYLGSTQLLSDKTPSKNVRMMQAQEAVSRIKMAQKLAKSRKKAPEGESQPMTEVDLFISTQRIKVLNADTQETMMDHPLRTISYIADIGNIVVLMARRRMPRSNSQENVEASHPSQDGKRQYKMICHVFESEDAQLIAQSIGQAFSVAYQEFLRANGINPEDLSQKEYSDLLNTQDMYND
Sequence of APP 11 aa peptide (Homo sapiens) (P05067 whole entry, looked up, tested part not stated): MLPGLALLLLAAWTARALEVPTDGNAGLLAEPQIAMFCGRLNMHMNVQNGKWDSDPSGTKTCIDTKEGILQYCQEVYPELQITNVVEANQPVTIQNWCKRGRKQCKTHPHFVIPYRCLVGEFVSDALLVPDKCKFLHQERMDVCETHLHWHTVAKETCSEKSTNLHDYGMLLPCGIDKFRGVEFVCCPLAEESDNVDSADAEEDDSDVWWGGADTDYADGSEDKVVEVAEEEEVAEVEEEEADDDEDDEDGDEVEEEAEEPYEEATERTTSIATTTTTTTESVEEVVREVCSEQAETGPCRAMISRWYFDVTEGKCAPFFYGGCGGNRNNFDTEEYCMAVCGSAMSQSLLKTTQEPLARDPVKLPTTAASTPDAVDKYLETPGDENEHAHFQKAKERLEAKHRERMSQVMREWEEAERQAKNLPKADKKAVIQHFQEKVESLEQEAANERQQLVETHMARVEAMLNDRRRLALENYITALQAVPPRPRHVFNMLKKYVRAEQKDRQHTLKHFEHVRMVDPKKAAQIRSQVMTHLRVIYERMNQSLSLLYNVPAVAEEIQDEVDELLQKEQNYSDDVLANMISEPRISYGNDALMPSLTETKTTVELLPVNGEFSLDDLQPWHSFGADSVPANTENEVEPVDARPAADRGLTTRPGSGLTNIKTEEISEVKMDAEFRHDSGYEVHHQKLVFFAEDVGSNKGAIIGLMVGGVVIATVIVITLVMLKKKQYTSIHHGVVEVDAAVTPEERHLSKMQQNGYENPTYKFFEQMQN

Row | Kd [1] [nM] | Kd [2] [nM] | Kd [3] [nM] | Substance
1 | 100000 | 200 | – | Fe65 PTB2 (from UniProt O00213)
2 | – | – | 300 | X11 PTB (from UniProt Q02410)
